This is an account of results in patent US11472855, “RNA-binding protein” (Panitch Schwarze Belisario & Nadel LLP).

Common to all, as to settings: label: Alexa680 at 5' and 3'
Data set [1] has as its target T1, hPUF_MT(R3→R5, R4→R5, R5; all C12S,Q16E).
T1 chain: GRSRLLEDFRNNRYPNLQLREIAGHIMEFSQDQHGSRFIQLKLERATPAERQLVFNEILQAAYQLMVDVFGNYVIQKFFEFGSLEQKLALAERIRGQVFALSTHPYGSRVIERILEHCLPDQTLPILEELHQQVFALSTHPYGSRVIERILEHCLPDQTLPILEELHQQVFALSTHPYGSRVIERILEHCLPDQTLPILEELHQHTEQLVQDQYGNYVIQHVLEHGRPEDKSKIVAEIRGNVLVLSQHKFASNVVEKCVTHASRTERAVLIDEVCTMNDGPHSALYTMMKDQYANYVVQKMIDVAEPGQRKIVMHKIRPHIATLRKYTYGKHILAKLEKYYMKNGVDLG
Nature of the data set: EMSA; binds only to its target. (A gel shift assay detects complexes by their altered migration in electrophoresis.)

The target in data set [2] is T2, hPUF_MT(R3→R5, R4→R5, R5; all C12S,Q16R).
T2 chain: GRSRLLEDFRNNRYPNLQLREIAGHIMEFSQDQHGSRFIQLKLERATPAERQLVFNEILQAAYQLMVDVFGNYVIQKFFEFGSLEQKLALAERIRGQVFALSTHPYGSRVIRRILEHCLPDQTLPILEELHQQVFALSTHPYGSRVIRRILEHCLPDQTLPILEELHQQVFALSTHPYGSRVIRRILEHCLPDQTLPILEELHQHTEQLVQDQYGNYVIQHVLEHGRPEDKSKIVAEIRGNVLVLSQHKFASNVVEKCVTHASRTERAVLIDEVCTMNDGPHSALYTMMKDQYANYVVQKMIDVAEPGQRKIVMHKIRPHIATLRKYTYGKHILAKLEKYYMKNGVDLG
Nature of the data set: EMSA; binds only to its target.

Data set [3] has as its target T3, hPUF_MT(R3→R5_C12N, R4→R5_C12N, R5_C12N).
T3 chain: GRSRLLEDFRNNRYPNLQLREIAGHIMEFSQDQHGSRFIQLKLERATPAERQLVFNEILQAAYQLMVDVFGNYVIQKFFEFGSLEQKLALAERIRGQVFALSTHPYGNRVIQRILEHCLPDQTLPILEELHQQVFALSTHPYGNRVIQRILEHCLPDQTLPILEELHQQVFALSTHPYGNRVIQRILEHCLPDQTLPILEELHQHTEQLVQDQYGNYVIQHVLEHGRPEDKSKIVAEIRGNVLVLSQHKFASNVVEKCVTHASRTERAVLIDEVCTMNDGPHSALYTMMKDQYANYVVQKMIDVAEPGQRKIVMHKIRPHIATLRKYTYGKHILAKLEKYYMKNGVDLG
In words: EMSA; strongest of the four.

Data set [4] has the same target. Nature of the data set: EMSA; binds only to its target.
The target of data set [5] is T2, hPUF_MT(R3→R5, R4→R5, R5; all C12S,Q16R). Nature of the data set: EMSA; stronger than A-recognising P8.
Data set [6] addresses T4, hPUF_MT(R3→R5, R4→R5_R13H, R5_R13H).
T4 chain: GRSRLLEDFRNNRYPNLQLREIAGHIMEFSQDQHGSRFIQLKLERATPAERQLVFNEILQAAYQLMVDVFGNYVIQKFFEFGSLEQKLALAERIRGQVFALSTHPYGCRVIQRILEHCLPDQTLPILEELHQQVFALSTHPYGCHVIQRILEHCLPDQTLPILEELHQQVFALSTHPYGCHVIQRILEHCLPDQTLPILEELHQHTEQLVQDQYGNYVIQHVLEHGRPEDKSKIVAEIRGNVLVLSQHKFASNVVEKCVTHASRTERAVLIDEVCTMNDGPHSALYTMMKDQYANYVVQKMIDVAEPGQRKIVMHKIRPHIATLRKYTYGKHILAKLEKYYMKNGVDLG
In words: EMSA; H=Y>R>F=W>K; Example 5-2 states a different order.

Data set [7] has as its target T5, hPUF_MT(R3→R5, R4→R5_R13Y, R5_R13Y).
T5 chain: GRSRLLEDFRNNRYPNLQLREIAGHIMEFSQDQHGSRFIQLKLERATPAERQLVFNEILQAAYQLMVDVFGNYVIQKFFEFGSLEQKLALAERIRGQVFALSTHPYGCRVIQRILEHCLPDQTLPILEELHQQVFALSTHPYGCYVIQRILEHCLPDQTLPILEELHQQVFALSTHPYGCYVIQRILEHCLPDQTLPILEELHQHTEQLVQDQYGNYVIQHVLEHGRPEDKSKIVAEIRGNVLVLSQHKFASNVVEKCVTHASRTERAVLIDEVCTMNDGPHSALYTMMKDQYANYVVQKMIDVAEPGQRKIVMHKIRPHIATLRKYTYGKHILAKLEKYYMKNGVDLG
In words: EMSA; H=Y>R>F=W>K.

Data set [8] deals with T6, hPUF_MT(R3→R5, R4→R5).
T6 chain: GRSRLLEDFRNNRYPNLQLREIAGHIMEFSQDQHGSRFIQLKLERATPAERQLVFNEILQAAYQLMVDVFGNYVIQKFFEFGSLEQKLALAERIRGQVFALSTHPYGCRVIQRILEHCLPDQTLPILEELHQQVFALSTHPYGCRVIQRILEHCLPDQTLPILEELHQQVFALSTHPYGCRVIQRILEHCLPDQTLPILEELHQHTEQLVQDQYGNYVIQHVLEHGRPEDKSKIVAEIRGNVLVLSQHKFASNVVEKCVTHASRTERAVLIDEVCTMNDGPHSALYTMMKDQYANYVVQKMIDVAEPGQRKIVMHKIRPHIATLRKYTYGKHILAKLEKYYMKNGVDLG
In words: EMSA; A-A stacking: H=Y>R>F=W>K.

Data set [9] addresses T7, hPUF_MT(R4→R6_N12S,Q16R, R6_N12S,Q16R) (UniProt Q14671 SEQ:1-349).
T7 chain: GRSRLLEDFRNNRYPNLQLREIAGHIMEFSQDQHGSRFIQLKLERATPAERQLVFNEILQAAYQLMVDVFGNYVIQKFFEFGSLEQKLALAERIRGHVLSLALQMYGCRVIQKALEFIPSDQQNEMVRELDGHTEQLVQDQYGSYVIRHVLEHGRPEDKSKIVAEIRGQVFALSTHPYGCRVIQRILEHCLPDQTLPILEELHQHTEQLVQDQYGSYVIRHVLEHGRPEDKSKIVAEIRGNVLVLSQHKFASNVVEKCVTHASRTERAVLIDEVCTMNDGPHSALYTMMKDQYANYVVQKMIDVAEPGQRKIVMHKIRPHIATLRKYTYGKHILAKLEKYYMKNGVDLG
In words: EMSA; comparable to or relatively weaker than WT U recognition.

In data set [10] the target is T8, hPUF_MT(R4→R6_N12C, R6_N12C) (UniProt Q14671 SEQ:1-349).
T8 chain: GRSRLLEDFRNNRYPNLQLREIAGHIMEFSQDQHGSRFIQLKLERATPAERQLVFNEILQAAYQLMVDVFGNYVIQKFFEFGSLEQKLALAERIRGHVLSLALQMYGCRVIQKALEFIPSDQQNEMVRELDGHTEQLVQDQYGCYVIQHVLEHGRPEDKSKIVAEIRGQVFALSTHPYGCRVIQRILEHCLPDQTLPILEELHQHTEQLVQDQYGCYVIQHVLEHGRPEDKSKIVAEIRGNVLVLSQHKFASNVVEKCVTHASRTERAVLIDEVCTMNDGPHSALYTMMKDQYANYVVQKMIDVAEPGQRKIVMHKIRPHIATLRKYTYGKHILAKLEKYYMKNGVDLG
Nature of the data set: EMSA.

Data set [11] has as its target T1, hPUF_MT(R3→R5, R4→R5, R5; all C12S,Q16E). Nature of the data set: EMSA; stronger than A-recognising P8.
For data set [12], the target named is T9, hPUF_MT(R5:A_13R)3(R6:C_13Y)3.
T9 chain: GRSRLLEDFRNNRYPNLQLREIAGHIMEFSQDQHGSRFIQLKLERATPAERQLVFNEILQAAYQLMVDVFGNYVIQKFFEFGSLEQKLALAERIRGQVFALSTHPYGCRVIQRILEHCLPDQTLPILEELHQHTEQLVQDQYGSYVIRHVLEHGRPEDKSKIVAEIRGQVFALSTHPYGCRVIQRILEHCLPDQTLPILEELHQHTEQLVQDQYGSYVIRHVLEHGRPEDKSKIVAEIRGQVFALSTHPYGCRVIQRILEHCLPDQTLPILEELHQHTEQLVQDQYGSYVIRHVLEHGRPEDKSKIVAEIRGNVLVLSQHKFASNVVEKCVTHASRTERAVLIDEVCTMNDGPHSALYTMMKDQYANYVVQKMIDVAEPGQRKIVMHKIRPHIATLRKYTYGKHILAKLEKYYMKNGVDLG
In words: EMSA; best of three.

Data set [13] deals with T10, hPUF_MT(R5:G_13R)3(R6:U_13Y)3.
T10 chain: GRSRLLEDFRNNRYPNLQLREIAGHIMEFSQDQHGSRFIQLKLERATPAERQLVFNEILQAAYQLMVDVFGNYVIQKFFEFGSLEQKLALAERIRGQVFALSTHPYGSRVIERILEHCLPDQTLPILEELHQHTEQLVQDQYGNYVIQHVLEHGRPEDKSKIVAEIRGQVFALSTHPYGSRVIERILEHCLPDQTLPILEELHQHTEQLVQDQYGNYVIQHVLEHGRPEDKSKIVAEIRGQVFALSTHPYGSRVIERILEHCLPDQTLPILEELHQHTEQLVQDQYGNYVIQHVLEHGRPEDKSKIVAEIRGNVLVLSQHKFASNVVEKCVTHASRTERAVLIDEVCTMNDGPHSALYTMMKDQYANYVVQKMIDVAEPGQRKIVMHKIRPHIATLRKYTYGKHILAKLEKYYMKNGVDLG
In words: EMSA.

Data set [14] deals with T11, hPUF_MT(R4→R6_N12S,Q16E, R6_N12S,Q16E) (UniProt Q14671 SEQ:1-349).
T11 chain: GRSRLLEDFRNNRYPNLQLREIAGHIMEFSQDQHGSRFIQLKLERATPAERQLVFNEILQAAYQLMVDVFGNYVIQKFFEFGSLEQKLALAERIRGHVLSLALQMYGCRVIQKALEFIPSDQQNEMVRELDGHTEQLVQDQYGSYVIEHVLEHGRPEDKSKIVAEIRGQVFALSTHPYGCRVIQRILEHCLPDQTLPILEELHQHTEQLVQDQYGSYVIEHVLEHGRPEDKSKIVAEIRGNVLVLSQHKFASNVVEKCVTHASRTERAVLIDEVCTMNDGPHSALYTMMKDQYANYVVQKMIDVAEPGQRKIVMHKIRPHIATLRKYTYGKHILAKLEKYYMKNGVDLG
In words: EMSA; comparable to or relatively weaker than WT U recognition.

Data set [15] has as its target T12, hPUF_MT(R5:A_13R)3(R6:G_13Y)3.
T12 chain: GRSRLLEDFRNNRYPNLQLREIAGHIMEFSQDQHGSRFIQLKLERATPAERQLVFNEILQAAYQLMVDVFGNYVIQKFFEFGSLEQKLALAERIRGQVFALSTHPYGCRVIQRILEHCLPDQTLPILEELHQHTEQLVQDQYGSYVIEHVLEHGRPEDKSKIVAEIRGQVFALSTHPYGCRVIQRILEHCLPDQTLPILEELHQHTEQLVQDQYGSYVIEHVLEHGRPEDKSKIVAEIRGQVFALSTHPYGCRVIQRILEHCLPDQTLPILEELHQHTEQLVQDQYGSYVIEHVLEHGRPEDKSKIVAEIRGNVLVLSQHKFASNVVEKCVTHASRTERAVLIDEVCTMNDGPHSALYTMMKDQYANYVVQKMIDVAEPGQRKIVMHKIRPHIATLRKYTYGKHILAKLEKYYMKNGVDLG
In words: EMSA; best of three.

B1: OTS-1841 (ssRNA)
RNA: CCAGAAUUGUUUUUAUUCG
With B1, the binding result is given as “no binding” in data set [1], “no binding” in [2] and “binds” in data set [3].

B2: OTS-1843 (ssRNA)
RNA: CCAGAAUUGUCCCUAUUCG
B2: the binding result is recorded as “no binding” in data set [4], “no binding” in data set [1] and “binds” in data set [5].

B3: OTS-1759 (ssRNA)
RNA: CCAGAAUUGUAAAUAUUCG
In the case of B3, the binding result in [6], in [7] and in data set [8] was “binds” in each case.

B4: OTS-1979 (ssRNA)
RNA: CCAGAAUUGCACAUAUUCG
With B4, the binding result in data set [9] was “binds”.

B5: OTS-1819 (ssRNA)
RNA: CCAGAAUUGAAAAUAUUCG
Turning to B5, the binding signal in data set [10] was ~0.01 fold of U-recognising type.

B6: OTS-1842 (ssRNA)
RNA: CCAGAAUUGUGGGUAUUCG
Take B6: the results for the binding result in [4], in [2] and in data set [11] were “no binding”, “no binding” and “binds”, respectively.

B7: OTS-2004 (Example 5-4) (ssRNA)
RNA: CCAGAAUUGCACACAUAUUCG
Consider B7, for which the binding result in [12] is recorded as “binds”.

B8: OTS-2004 (Example 5-6) (ssRNA)
RNA: CCAGAAUUGUGUGUGUAUUCG
As to B8, the binding result in [13] was “binds”.

B9: OTS-1978 (ssRNA)
RNA: CCAGAAUUGGAGAUAUUCG
As to B9, the binding result in [14] is listed as “binds”.

B10: OTS-2008 (ssRNA)
RNA: CCAGAAUUGGAGAGAUAUUCG
As to B10, in data set [15], the binding result was “binds”.
